Source: patent US20110263454A1, “Methods of Identifying Functional Characteristics of Promoters, Transcription Modifying Proteins and Transcription Modulating Agents” (Salk Institute for Biological Studies, priority 2008, published 2011)

Columns and labels:
Type in all cases: cell-based, mouse
mPgc1b promoter = assay: NHR-promoter luciferase screen, mPgc1b promoter; details: for Luc. act., normalized to lacZ / Normalized Luc. act., normalized to control: PGC1b promoter reporter, co-transfected HR, without or with its ligand; for Normalized Luc. act., normalized to control: relative to control; for luciferase activity normalized to lacZ activity and to a control, mPgc1b: mPgc1b promoter-luciferase, CV-1 cells, NHR +/- ligand, control = 1.00
Procedure, shortened: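 CV-1 cells co-transfected with NHR homodimer or NHR/RXR heterodimer (pcDNA3.1, C-terminal V5H6 tag), promoter-luciferase construct and LacZ transfection control. Orphan receptors screened without ligand. Luciferase normalized to LacZ and to no-NHR/no-ligand control.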

mUCP1 promoter = assay: NHR-promoter luciferase screen, mUCP1 promoter; details: for Luc. act., normalized to lacZ / Normalized Luc. act., normalized to control: mUCP1 promoter reporter, co-transfected HR, with or without its ligand; for Normalized Luc. act., normalized to control: relative to control; for luciferase activity normalized to lacZ activity and to a control, mUCP!: mUCP! promoter-luciferase, CV-1 cells, NHR +/- ligand, control = 1.00
Procedure, shortened: (§1)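 CV-1 cells were co-transfected with 50 ng NHR (homodimer or NHR/RXR heterodimer), 100 ng promoter-luciferase construct and 50 ng LacZ. Luciferase was normalized to LacZ and to a no-NHR/no-ligand control.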

mGhrelin promoter = assay: NHR-promoter luciferase screen, mGhrelin promoter; details: for Luc. act., normalized to lacZ / Normalized Luc. act., normalized to control: Table 8, mGhrelin; for Results of assays of transcription factor (+/- ligand) with mGhrelin: Table 6d, luciferase activity relative to control (control = 1.00)
Procedure, shortened: as §1

mAgrp promoter = assay: NHR-promoter luciferase screen, mAgrp promoter; details: for Results of assays of transcription factor (+/- ligand) with mAgrp: Table 6d, luciferase activity relative to control (control = 1.00); for Luc. act., normalized to lacZ / Normalized Luc. act., normalized to control: mAgrp promoter, HR component with or without ligand; for Normalized Luc. act., normalized to control: relative to control
Procedure, shortened: as §1

mAdiponectin promoter = assay: NHR-promoter luciferase screen, mAdiponectin promoter; details: for Luc. act., normalized to lacZ / Normalized Luc. act., normalized to control: Adiponectin, HR component without or with its ligand; for mAdiponectin promoter reporter activity: transcription factor +/- ligand, control = 1.00
Procedure, shortened: as §1

Molecule	Luc. act., normalized to lacZ (mPgc1b promoter)	Normalized Luc. act., normalized to control (mPgc1b promoter)	luciferase activity normalized to lacZ activity and to a control, mPgc1b (mPgc1b promoter)	Luc. act., normalized to lacZ (mUCP1 promoter)	Normalized Luc. act., normalized to control (mUCP1 promoter)	luciferase activity normalized to lacZ activity and to a control, mUCP! (mUCP1 promoter)	Luc. act., normalized to lacZ (mGhrelin promoter)	Normalized Luc. act., normalized to control (mGhrelin promoter)	Results of assays of transcription factor (+/- ligand) with mGhrelin (mGhrelin promoter)	Results of assays of transcription factor (+/- ligand) with mAgrp (mAgrp promoter)	Luc. act., normalized to lacZ (mAgrp promoter)	Normalized Luc. act., normalized to control (mAgrp promoter)	Luc. act., normalized to lacZ (mAdiponectin promoter)	Normalized Luc. act., normalized to control (mAdiponectin promoter)	mAdiponectin promoter reporter activity (mAdiponectin promoter)
ERR3: Estrogen Related Receptor γ (NR3B3, ERRg), cDNA driver (protein, UniProt P62508 1-458, looked up) Estrogen-related receptor …: MDSVELCLPESFSLHYEEELLCRMSNKDRHIDSSCSSFIKTEPSSPASLTDSVNHHSPGGSSDASGSYSSTMNGHQNGLDSPPLYPSAPILGGSGPVRKLYDDCSSTIVEDPQTKCEYMLNSMPKRLCLVCGDIASGYHYGVASCEACKAFFKRTIQGNIEYSCPATNECEITKRRRKSCQACRFMKCLKVGMLKEGVRLDRVRGGRQKYKRRIDAENSPYLNPQLVQPAKKPYNKIVSHLLVAEPEKIYAMPDPTVPDSDIKALTTLCDLADRELVVIIGWAKHIPGFSTLSLADQMSLLQSAWMEILILGVVYRSLSFEDELVYADDYIMDEDQSKLAGLLDLNNAILQLVKKYKSMKLEKEEFVTLKAIALANSDSMHIEDVEAVQKLQDVLHEALQDYEAGQHMEDPRRAGKMLMTLPLLRQTSTKAVQHFYNIKLEGKVPMHKLFLEMLEAKV	20.1	1.7	1.70	26.5	6.0	5.98	145.9	2.8	2.79	2.12	84.0	2.1	69.7	1.1	1.11
CTF2: COUP-TF2 (NR2F2), cDNA driver (protein, UniProt P24468 1-414, looked up) COUP transcription factor 2: MAMVVSTWRDPQDEVPGSQGSQASQAPPVPGPPPGAPHTPQTPGQGGPASTPAQTAAGGQGGPGGPGSDKQQQQQHIECVVCGDKSSGKHYGQFTCEGCKSFFKRSVRRNLSYTCRANRNCPIDQHHRNQCQYCRLKKCLKVGMRREAVQRGRMPPTQPTHGQFALTNGDPLNCHSYLSGYISLLLRAEPYPTSRFGSQCMQPNNIMGIENICELAARMLFSAVEWARNIPFFPDLQITDQVALLRLTWSELFVLNAAQCSMPLHVAPLLAAAGLHASPMSADRVVAFMDHIRIFQEQVEKLKALHVDSAEYSCLKAIVLFTSDACGLSDVAHVESLQEKSQCALEEYVRSQYPNQPTRFGKLLLRLPSLRTVSSSVIEQLFFVRLVGKTPIETLIRDMLLSGSSFNWPYMAIQ	12.2	1.0	1.03	1.9	0.4	0.43	173.3	3.3	3.32	1.08	42.7	1.1	75.1	1.2	1.20
hMR: Mineralocorticoid Receptor (NR3C2, MR), cDNA driver (protein, UniProt P08235 1-984, looked up) Mineralocorticoid receptor: METKGYHSLPEGLDMERRWGQVSQAVERSSLGPTERTDENNYMEIVNVSCVSGAIPNNSTQGSSKEKQELLPCLQQDNNRPGILTSDIKTELESKELSATVAESMGLYMDSVRDADYSYEQQNQQGSMSPAKIYQNVEQLVKFYKGNGHRPSTLSCVNTPLRSFMSDSGSSVNGGVMRAVVKSPIMCHEKSPSVCSPLNMTSSVCSPAGINSVSSTTASFGSFPVHSPITQGTPLTCSPNVENRGSRSHSPAHASNVGSPLSSPLSSMKSSISSPPSHCSVKSPVSSPNNVTLRSSVSSPANINNSRCSVSSPSNTNNRSTLSSPAASTVGSICSPVNNAFSYTASGTSAGSSTLRDVVPSPDTQEKGAQEVPFPKTEEVESAISNGVTGQLNIVQYIKPEPDGAFSSSCLGGNSKINSDSSFSVPIKQESTKHSCSGTSFKGNPTVNPFPFMDGSYFSFMDDKDYYSLSGILGPPVPGFDGNCEGSGFPVGIKQEPDDGSYYPEASIPSSAIVGVNSGGQSFHYRIGAQGTISLSRSARDQSFQHLSSFPPVNTLVESWKSHGDLSSRRSDGYPVLEYIPENVSSSTLRSVSTGSSRPSKICLVCGDEASGCHYGVVTCGSCKVFFKRAVEGQHNYLCAGRNDCIIDKIRRKNCPACRLQKCLQAGMNLGARKSKKLGKLKGIHEEQPQQQQPPPPPPPPQSPEEGTTYIAPAKEPSVNTALVPQLSTISRALTPSPVMVLENIEPEIVYAGYDSSKPDTAENLLSTLNRLAGKQMIQVVKWAKVLPGFKNLPLEDQITLIQYSWMCLSSFALSWRSYKHTNSQFLYFAPDLVFNEEKMHQSAMYELCQGMHQISLQFVRLQLTFEEYTIMKVLLLLSTIPKDGLKSQAAFEEMRTNYIKELRKMVTKCPNNSGQSWQRFYQLTKLLDSMHDLVSDLLEFCFYTFRESHALKVEFPAMLVEIISDQLPKVESGNAKPLYFHRK	5.7	0.5	0.48	2.1	0.5	0.48	49.7	1.0	0.95	0.79	31.2	0.8	32.3	0.5	0.51
CTF3: COUP-TF3 (NR2F6), cDNA driver (protein, UniProt P10588 1-404, looked up) Nuclear receptor subfamily 2 …: MAMVTGGWGGPGGDTNGVDKAGGYPRAAEDDSASPPGAASDAEPGDEERPGLQVDCVVCGDKSSGKHYGVFTCEGCKSFFKRSIRRNLSYTCRSNRDCQIDQHHRNQCQYCRLKKCFRVGMRKEAVQRGRIPHSLPGAVAASSGSPPGSALAAVASGGDLFPGQPVSELIAQLLRAEPYPAAAGRFGAGGGAAGAVLGIDNVCELAARLLFSTVEWARHAPFFPELPVADQVALLRLSWSELFVLNAAQAALPLHTAPLLAAAGLHAAPMAAERAVAFMDQVRAFQEQVDKLGRLQVDSAEYGCLKAIALFTPDACGLSDPAHVESLQEKAQVALTEYVRAQYPSQPQRFGRLLLRLPALRAVPASLISQLFFMRLVGKTPIETLIRDMLLSGSTFNWPYGSGQ	4.9	0.4	0.42	1.9	0.4	0.42	68.4	1.3	1.31	0.86	34.2	0.9	71.0	1.1	1.13
CTF1: COUP-TF1 (NR2F1), cDNA driver (protein, UniProt P10589 1-423, looked up) COUP transcription factor 1: MAMVVSSWRDPQDDVAGGNPGGPNPAAQAARGGGGGAGEQQQQAGSGAPHTPQTPGQPGAPATPGTAGDKGQGPPGSGQSQQHIECVVCGDKSSGKHYGQFTCEGCKSFFKRSVRRNLTYTCRANRNCPIDQHHRNQCQYCRLKKCLKVGMRREAVQRGRMPPTQPNPGQYALTNGDPLNGHCYLSGYISLLLRAEPYPTSRYGSQCMQPNNIMGIENICELAARLLFSAVEWARNIPFFPDLQITDQVSLLRLTWSELFVLNAAQCSMPLHVAPLLAAAGLHASPMSADRVVAFMDHIRIFQEQVEKLKALHVDSAEYSCLKAIVLFTSDACGLSDAAHIESLQEKSQCALEEYVRSQYPNQPSRFGKLLLRLPSLRTVSSSVIEQLFFVRLVGKTPIETLIRDMLLSGSSFNWPYMSIQCS	6.7	0.6	0.57	1.8	0.4	0.41	113.8	2.2	2.18	0.71	28.2	0.7	118.7	1.9	1.89
